Five molecules from patent publication US20070117924A1, “Biologically active material conjugated with biocompatible polymer with 1:1 complex, preparation method thereof and pharmaceutical composition comprising the same” (priority 2003, published 2007) can be followed below.

Series [1] deals with UMR-10^6 cell line. The series is described as follows: In vitro biological activity of mPEG-PTH conjugate: c-AMP synthesized in UMR-10^6 cell line. In kind it is cell-based. Particulars: concentration of 10-8 mole, FIG. 19.
Series [2] is described as follows: Half-life of mPEG-Hz-PTH in rats (cAMP in plasma). Particulars: male rats, 100 ug/kg intravenous; FIG. 20.
A short description of series [3]: Half life of PEG-G-CSF conjugate in rats (serum activity by cell XTT assay). Particulars: 100 ug/kg intravenous, FIG. 8. A general note: Tetrazolium dyes change colour on reduction, which living cells bring about.
The subject of series [4] is White Blood Cell (WBC) count. The series is described as follows: White blood cell (WBC) count of PEG-G-CSF-treated rats. In kind it is in vivo, Sprague-Dawley rats. The following applies: 100 ug/kg into tail vein, blood 0-96 hrs, FIG. 9.

mPEG(5000)-Hz-PTH: in series [1], the “activity retained, % of unreacted PTH (c-AMP synthesized)” value (“activity retained, % of unreacted PTH” below) came out at 40%. The “detection after administration (not detected)” value in series [2] is “not detected after 15 mins”.
mPEG(20000)-Hz-PTH: the “activity retained, % of unreacted PTH” value in series [1] is 20%. Further, the “time after administration at which detected” value in series [2] came to 2 h.
Take unreacted PTH [reference compound]: in series [2], the “detection after administration (not detected)” value is recorded as “not detected after 15 mins”.
Turning to mPEG(12000)-Hz-PTH, the “activity retained, % of unreacted PTH” value in series [1] is recorded as 30%. Moreover, the “time after administration at which detected” value in series [2] was 1 h.

B1: mPEG(20000)-Hz-G-CSF (conjugate, UniProt P09919 31-207, looked up)
Granulocyte …: TPLGPASSLPQSFLLKCLEQVRKIQGDGAALQEKLVSECATYKLCHPEELVLLGHSLGIPWAPLSSCPSQALQLAGCLSQLHSGLFLYQGLLQALEGISPELGPTLDTLQLDVADFATTIWQQMEELGMAPALQPTQGAMPAFASAFQRRAGGVLVASHLQSFLEVSYRVLRHLAQP
modifications: mPEG 20 kDa via hydrazine linker
As to B1, the “half-life compared to native G-CSF” value in series [3] was “much longer half-life compared to native G-CSF”. For the same molecule, the “WBC counts compared with native G-CSF and Neulasta” value in series [4] was “higher WBC counts than both native G-CSF and Neulasta™”.
